The values that follow are results of earlier work, collected in publication PMC8531642.

Data set [1] has as its target LRG1 (Homo sapiens) (UniProt P02750). Put plainly: SPR. (In general: In SPR one partner is held on a chip, and binding of the other changes the refractive index at the surface.)
For data set [2], the target named is Cytochrome c (UniProt P99999).

Sequence of UniProt P02750 (P02750 36-347): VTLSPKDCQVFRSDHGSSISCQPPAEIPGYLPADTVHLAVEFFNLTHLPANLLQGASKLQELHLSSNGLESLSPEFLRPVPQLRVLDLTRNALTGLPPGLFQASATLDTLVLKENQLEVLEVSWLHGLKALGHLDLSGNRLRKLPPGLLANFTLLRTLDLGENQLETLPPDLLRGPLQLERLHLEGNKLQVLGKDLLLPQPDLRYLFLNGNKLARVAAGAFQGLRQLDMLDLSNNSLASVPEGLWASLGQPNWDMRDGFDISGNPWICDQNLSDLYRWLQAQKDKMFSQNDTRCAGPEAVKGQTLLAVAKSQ

In the case of Cytochrome c (from UniProt P99999), the Kd in data set [1] was 0.000158 nM.

As to Apaf-1 (from UniProt O14727), the Kd in data set [2] is 500 nM. TGF-β1 (from UniProt P01137): the Kd in data set [1] is 2320 nM.

The term Kd denotes a measure of binding affinity in units of concentration.
